Assay results from article PMC4773095.

Target: NsrR, response regulator from Streptococcus agalactiae COH1 (full length) (Streptococcus agalactiae COH1)
Assay: SEC; Superdex 200 GL 10/300, buffer C (25 mM Tris pH 9.0, 50 mM NaCl, 2 mM PMSF); column calibrated with proteins of known molecular weight

NsrR, response regulator from Streptococcus agalactiae COH1 (full length) (natural protein)
stoichiometry N: 2
